# Measured values reported in patent US20090192084A1 (CALIFORNIA INSTITUTE OF TECHNOLOGY, published 2009).
# T1: endogenous NPL4 (human, UniProt Q8TAT6-2 2-617, limits assumed)
# T1 sequence (looked up): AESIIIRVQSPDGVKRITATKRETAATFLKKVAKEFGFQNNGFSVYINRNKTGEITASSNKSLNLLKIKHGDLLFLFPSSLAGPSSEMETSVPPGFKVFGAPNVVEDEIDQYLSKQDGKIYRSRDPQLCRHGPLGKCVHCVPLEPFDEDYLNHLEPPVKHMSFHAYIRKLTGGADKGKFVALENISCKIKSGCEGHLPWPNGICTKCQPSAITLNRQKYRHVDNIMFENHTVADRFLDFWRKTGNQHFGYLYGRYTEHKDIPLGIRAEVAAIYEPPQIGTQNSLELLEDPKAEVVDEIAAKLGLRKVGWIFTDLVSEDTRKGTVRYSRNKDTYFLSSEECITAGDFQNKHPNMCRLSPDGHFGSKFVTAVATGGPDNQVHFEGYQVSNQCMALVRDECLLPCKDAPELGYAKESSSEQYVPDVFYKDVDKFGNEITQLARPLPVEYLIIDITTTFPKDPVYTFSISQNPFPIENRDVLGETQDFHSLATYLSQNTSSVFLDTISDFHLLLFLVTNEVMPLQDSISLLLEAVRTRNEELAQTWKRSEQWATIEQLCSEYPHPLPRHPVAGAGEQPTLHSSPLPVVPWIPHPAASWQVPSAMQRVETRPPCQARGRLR
# T2: Ubiquitin conjugation factor E4 B, UBE4B (Ufd2ortholog) (human, UniProt O95155 1-1302)
# T2 sequence (looked up): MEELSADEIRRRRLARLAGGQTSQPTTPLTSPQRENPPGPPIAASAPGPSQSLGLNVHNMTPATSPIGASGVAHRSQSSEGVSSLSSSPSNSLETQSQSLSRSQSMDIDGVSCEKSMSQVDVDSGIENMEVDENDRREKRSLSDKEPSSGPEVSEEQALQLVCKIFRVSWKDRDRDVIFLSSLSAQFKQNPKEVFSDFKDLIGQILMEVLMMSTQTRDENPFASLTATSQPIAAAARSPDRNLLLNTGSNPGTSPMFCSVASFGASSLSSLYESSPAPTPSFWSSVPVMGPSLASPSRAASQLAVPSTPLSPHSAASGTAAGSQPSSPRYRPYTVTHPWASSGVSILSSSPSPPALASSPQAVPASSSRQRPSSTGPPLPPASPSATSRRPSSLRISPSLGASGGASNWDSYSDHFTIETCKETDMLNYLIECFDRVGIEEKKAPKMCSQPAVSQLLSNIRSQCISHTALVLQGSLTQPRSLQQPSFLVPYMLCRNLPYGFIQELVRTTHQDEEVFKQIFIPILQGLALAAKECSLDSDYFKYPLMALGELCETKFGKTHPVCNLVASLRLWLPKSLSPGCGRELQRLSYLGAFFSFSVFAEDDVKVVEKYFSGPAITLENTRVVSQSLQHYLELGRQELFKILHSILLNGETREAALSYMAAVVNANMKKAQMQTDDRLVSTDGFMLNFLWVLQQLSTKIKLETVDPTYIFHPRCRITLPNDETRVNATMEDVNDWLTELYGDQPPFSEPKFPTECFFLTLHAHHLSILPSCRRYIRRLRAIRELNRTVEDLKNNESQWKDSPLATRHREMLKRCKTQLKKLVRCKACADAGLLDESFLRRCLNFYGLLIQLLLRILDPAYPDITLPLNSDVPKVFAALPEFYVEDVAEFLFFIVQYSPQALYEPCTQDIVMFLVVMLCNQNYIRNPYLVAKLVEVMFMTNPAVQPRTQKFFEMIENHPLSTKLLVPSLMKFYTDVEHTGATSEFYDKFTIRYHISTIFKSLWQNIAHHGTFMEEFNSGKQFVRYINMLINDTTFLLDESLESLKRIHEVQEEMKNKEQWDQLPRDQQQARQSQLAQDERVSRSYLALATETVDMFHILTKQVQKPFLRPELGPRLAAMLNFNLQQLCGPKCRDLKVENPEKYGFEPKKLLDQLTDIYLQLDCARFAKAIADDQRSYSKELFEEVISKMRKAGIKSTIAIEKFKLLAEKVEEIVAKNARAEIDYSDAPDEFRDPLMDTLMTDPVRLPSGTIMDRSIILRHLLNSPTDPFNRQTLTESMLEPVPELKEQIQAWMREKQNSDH
# B1: Flag-p47 (other, UniProt O35987 1-370, looked up)
# chain: MAEERQDALREFVAVTGAEEDRARFFLESAGWDLQIALASFYEDGGDEDIVTISQATPSSVSRGTAPSDNRVTSFRDLIHDQDEEEEEEEGQRFYAGGSERSGQQIVGPPRKKSPNELVDDLFKGAKEHGAVAVERVTKSPGETSKPRPFAGGGYRLGAAPEEESAYVAGERRRHSGQDVHVVLKLWKTGFSLDNGDLRSYQDPSNAQFLESIRRGEVPAELRRLAHGGQVNLDMEDHRDEDFVKPKGAFKAFTGEGQKLGSTAPQVLNTSSPAQQAENEAKASSSILINEAEPTTNIQIRLADGGRLVQKFNHSHRISDIRLFIVDARPAMAATSFVLMTTFPNKELADENQTLKEANLLNAVIVQRLT
# notes: also called RDB 2148; not shown: N-terminal Flag tag
# B2: endogenous UBXD7 (other, human, UniProt O94888 2-489, looked up)
# chain: AAHGGSAASSALKGLIQQFTTITGASESVGKHMLEACNNNLEMAVTMFLDGGGIAEEPSTSSASVSTVRPHTEEEVRAPIPQKQEILVEPEPLFGAPKRRRPARSIFDGFRDFQTETIRQEQELRNGGAIDKKLTTLADLFRPPIDLMHKGSFETAKECGQMQNKWLMINIQNVQDFACQCLNRDVWSNEAVKNIIREHFIFWQVYHDSEEGQRYIQFYKLGDFPYVSILDPRTGQKLVEWHQLDVSSFLDQVTGFLGEHGQLDGLSSSPPKKCARSESLIDASEDSQLEAAIRASLQETHFDSTQTKQDSRSDEESESELFSGSEEFISVCGSDEEEEVENLAKSRKSPHKDLGHRKEENRRPLTEPPVRTDPGTATNHQGLPAVDSEILEMPPEKADGVVEGIDVNGPKAQLMLRYPDGKREQITLPEQAKLLALVKHVQSKGYPNERFELLTNFPRRKLSHLDYDITLQEAGLCPQETVFVQERN
# B3: endogenous UFD1 (other, human, UniProt Q92890-1 1-343, looked up)
# chain: MFSFNMFDHPIPRVFQNRFSTQYRCFSVSMLAGPNDRSDVEKGGKIIMPPSALDQLSRLNITYPMLFKLTNKNSDRMTHCGVLEFVADEGICYLPHWMMQNLLLEEDGLVQLETVNLQVATYSKSKFCYLPHWMMQNLLLEEGGLVQVESVNLQVATYSKFQPQSPDFLDITNPKAVLENALRNFACLTTGDVIAINYNEKIYELRVMETKPDKAVSIIECDMNVDFDAPLGYKEPERQVQHEESTEGEADHSGYAGELGFRAFSGSGNRLDGKKKGVEPSPSPIKPGDIKRGIPNYEFKLGKITFIRNSRPLVKKVEEDEAGGRFVAFSGEGQSLRKKGRKP
# B4: Flag-UBXD7ΔUBX (other, not shown: small tags and cut ends)
# chain: MAAHGGSAASSALKGLIQQFTTITGASESVGKHMLEACNNNLEMAVTMFLDGGGIAEEPSTSSASVSTVRPHTEEEVRAPIPQKQEILVEPEPLFGAPKRRRPARSIFDGFRDFQTETIRQEQELRNGGAIDKKLTTLADLFRPPIDLMHKGSFETAKECGQMQNKWLMINIQNVQDFACQCLNRDVWSNEAVKNIIREHFIFWQVYHDSEEGQRYIQFYKLGDFPYVSILDPRTGQKLVEWHQLDVSSFLDQVTGFLGEHGQLDGLSSSPPKKCARSESLIDASEDSQLEAAIRASLQETHFDSTQTKQDSRSDEESESELFSGSEEFISVCGSDEEEEVENLAKSRKSPHKDLGHRKEENRRPLTEPPVRTDPGTATNHQGLPAVDSEILEMPPEKAD
# notes: also called UBXD7(1-400); truncated UBXD7
# B5: Flag-UBXD7 (other, UniProt O94888 1-489, looked up)
# chain: MAAHGGSAASSALKGLIQQFTTITGASESVGKHMLEACNNNLEMAVTMFLDGGGIAEEPSTSSASVSTVRPHTEEEVRAPIPQKQEILVEPEPLFGAPKRRRPARSIFDGFRDFQTETIRQEQELRNGGAIDKKLTTLADLFRPPIDLMHKGSFETAKECGQMQNKWLMINIQNVQDFACQCLNRDVWSNEAVKNIIREHFIFWQVYHDSEEGQRYIQFYKLGDFPYVSILDPRTGQKLVEWHQLDVSSFLDQVTGFLGEHGQLDGLSSSPPKKCARSESLIDASEDSQLEAAIRASLQETHFDSTQTKQDSRSDEESESELFSGSEEFISVCGSDEEEEVENLAKSRKSPHKDLGHRKEENRRPLTEPPVRTDPGTATNHQGLPAVDSEILEMPPEKADGVVEGIDVNGPKAQLMLRYPDGKREQITLPEQAKLLALVKHVQSKGYPNERFELLTNFPRRKLSHLDYDITLQEAGLCPQETVFVQERN
# notes: Wild-type plasmid in pCMV5B; expressed in 293 or HeLa cells and pulled down on anti-Flag beads; also called RDB 2155; not shown: N-terminal Flag tag
# Assays:
# endogenous NPL4 [1] = molecular target: T1, endogenous NPL4; assay: Flag co-IP, 293 cells, MudPIT MS
# Procedure: (§1) For immunoprecipitation experiments, the cells were lysed in buffer A (50 mM HEPES/KOH, pH 7.5; 5 mM Mg(OAc)₂; 70 mM KOAc; 0.2% Triton X-100; 10% glycerol; 0.2 mM EDTA; protease inhibitors) and incubated with anti-Flag agarose beads (Sigma) or anti-Myc sepharose beads (Covance).
# (§2) Mass spectrometrical sample analysis was performed as described previously (Graumann et al., 2004) using a high-pressure liquid chromatography pump (Agilent) in line to a LCQ DecaXP electrospray ion trap mass spectrometer (ThermoFinnigan). In brief, 2-4 mg of protein extract were incubated with anti-Flag or anti-Myc beads and the immunoprecipitated proteins were eluted with saturated urea. The eluates were then proteolitically digested using sequentially endoproteinase Lys-C and trypsin. The resulting peptide mixtures were pressure-loaded onto triphasic microcapillary columns and sample separation was achieved using a chromatography program consisting of six salt steps, each followed by an organic gradient. The eluting peptides were electrosprayed into the mass spectrometer and the column eluate was continuously analyzed. One full-range mass scan ([…]) was followed by three data-dependent tandem mass spectrometry (MS/MS) spectra. Sequence database matching was performed against the IPI human database (Kersey et al., 2004) version 3.15.1 using Sequest (Eng et al., 1994) and the results were filtered with DTASelect (Tabb et al., 2002), using the parameters indicated in Graumann et al. (2004).
# endogenous p97 [2] = molecular target: T3, endogenous p97 (human, UniProt P55072 2-806); assay: Flag co-IP, 293 cells, MudPIT MS
# T3 construct: also called VCP
# T3 sequence (P55072 2-806 limits assumed): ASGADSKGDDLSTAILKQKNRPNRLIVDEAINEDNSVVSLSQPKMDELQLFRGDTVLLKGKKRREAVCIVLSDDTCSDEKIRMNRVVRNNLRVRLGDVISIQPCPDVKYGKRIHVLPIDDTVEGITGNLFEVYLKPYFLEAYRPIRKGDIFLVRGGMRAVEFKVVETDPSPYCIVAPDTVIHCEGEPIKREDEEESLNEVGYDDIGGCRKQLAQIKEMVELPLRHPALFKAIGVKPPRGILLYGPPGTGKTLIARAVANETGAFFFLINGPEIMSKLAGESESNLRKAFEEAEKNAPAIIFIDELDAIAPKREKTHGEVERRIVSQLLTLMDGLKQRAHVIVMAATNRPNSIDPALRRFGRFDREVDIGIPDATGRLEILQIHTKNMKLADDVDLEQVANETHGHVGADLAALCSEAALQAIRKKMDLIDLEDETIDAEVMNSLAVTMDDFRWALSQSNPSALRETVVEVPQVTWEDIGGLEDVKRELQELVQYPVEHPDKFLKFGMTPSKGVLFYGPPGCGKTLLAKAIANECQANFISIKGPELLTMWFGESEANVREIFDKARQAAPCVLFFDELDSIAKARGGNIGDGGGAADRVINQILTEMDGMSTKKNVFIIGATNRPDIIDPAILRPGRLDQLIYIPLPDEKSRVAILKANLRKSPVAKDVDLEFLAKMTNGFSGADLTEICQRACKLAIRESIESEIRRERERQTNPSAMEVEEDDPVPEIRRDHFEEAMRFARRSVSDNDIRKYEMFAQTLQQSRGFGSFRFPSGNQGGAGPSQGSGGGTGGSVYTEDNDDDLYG
# Procedure: as §1, §2
# endogenous NPL4 [3] = molecular target: T1, endogenous NPL4; assay: Flag co-IP, mass spectrometry and immunoblotting
# endogenous p97 [4] = molecular target: T3, endogenous p97; assay: Superdex 200 gel filtration of HeLa extracts, western blot
# Text: Luc—luciferase (C) HeLa cell extracts were fractionated on a Superdex 200 gel filtration column. Individual fractions were concentrated by TCA precipitation and subjected to western blotting using specific antibodies. All proteins were endogenously expressed.
# Flag-p47 = molecular target: B1; assay: Flag co-IP, mass spectrometry and immunoblotting
# Cullin 2 = molecular target: T4, Cullin 2 (human, UniProt Q13617 1-745); assay: Flag co-IP, HeLa cells, western blot
# T4 construct: also called CUL2
# T4 sequence (Q13617 whole entry): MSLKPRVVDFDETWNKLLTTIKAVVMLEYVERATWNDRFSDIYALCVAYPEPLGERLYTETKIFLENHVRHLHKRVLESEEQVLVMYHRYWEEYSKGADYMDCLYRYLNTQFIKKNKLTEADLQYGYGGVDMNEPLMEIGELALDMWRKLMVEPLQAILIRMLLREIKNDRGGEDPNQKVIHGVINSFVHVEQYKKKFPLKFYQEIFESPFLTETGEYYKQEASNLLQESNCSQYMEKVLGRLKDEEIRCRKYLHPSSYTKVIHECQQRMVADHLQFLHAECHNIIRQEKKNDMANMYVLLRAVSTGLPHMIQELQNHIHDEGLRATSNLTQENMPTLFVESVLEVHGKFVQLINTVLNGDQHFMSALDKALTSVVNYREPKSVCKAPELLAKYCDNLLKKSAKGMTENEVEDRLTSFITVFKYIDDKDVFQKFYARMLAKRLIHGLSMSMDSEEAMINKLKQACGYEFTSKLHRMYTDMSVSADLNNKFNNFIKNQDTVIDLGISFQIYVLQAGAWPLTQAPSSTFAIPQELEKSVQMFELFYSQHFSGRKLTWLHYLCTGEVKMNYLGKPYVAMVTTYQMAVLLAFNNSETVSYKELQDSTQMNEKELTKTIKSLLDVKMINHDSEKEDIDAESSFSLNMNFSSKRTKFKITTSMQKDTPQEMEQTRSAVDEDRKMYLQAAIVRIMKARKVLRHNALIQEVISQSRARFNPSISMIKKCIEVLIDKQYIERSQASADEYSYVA
# Cullin 1 = molecular target: T5, Cullin 1 (human, UniProt Q13616 1-776, limits assumed); assay: Flag co-IP, HeLa cells, western blot
# T5 construct: also called CUL1
# T5 sequence (Q13616 whole entry): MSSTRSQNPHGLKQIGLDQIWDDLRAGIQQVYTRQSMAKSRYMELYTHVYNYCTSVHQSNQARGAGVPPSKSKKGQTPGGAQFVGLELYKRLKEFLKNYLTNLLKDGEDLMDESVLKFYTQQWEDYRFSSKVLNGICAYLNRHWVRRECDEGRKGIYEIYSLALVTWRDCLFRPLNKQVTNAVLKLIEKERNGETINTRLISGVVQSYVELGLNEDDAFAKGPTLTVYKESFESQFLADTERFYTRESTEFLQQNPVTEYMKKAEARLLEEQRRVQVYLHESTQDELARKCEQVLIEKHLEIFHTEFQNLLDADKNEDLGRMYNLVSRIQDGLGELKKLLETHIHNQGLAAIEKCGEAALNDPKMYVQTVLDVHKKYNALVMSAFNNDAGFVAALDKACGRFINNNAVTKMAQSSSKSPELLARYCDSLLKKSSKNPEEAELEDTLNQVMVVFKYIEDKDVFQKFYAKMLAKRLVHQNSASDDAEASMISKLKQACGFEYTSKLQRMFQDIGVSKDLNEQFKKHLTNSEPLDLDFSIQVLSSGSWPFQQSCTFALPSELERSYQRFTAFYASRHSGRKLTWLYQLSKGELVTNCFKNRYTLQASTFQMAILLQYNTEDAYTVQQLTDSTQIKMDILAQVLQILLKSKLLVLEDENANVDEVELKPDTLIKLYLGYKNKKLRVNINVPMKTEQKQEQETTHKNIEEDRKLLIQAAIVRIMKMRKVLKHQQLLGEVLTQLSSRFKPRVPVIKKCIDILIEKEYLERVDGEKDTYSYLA
# endogenous p97 [5] = molecular target: T3, endogenous p97; assay: Flag co-IP from HeLa cells, western blot
# [6] = molecular target: T2, Ubiquitin conjugation factor E4 B, …; assay: co-IP, MudPIT MS
binder,measurement,setting,value
B1,sequence count,endogenous NPL4 [1],2
same,sequence coverage,endogenous NPL4 [1],6%
same,spectrum count,endogenous NPL4 [1],2
same,sequence count,endogenous p97 [2],172
same,sequence coverage,endogenous p97 [2],82.7%
same,spectrum count,endogenous p97 [2],1610
same,binding result,endogenous NPL4 [3],no binding
B2,binding result,endogenous p97 [4],binds
B3,binding result,Flag-p47,no binding
B4,binding result,Cullin 2,binds
same,binding result,Cullin 1,binds
same,binding result,endogenous p97 [5],no binding
B5,sequence count,endogenous p97 [2],77
same,sequence coverage,endogenous p97 [2],61.2%
same,spectrum count,endogenous p97 [2],375
same,binding result,[6],no binding
